US5935840A, “Activated recombinant adenovirus proteinases” (priority 1995, dated 1999)

Assays:
[1] = target: T1, recombinant Ad2 proteinase (Human adenovirus C serotype 2, UniProt P03252); assay: Cofactor activity in HEP1DBP cleavage by recombinant Ad2 proteinase; assay type: biochemical, human adenovirus type 2; details: peptide mixed with recombinant Ad2 proteinase and Ad2 DNA
T1 construct: also expresses the wild-type 204-amino acid EP polypeptide; made in house; host or cells: E. coli BL21(DE3)
Method: When purified HEP1DBP was incubated with disrupted wild-type adenovirus 2 virions, it was cleaved, as determined from the change in its mobility during SDS-polyacrylamide gel electrophoresis. No cleavage was observed when incubation was with disrupted H2ts1 virions alone.
To determine if the Ad12 carboxy-terminal fragment of pVI functioned as the EP co-factor, the corresponding synthetic peptide was mixed with recombinant Ad2 proteinase and Ad2 DNA, and incubated with the HEP1DBP substrate.

[2] = target: T2, Ad2 proteinase (rEP protein) (Human adenovirus C serotype 2, UniProt P03252); assay type: biochemical, human adenovirus type 2; details: 1.2 nM rEP protein, 36 nM pVI-c peptide, no DNA, 5 μM substrate, 1 ml
T2 construct: Plasmid pT7AD23k6 contains the 204 codons of the Ad2 proteinase reading frame plus a translational termination codon; made in house; host or cells: E. coli BL21(DE3)
Text: (§1) The nature of the proteinase cofactor(s) was pursued with the aid of the second assay, which utilizes the substrate (Leu-Arg-Gly-Gly-NH)2 -rhodamine. The design of this substrate was based on two facts. (1) It was known that the proteinase present in disrupted Ad2 virions would cleave small peptides with sequence similar to that found at natural cleavage sites in adenovirus virion precursors (Webster et al., 1989). (2) Cleavage of either tetra-peptide sequence from the substituted rhodamine substrate produces a very large increase, up to a 3500-fold, in fluorescence. Under conditions where only a small fraction of the rhodamine substrate is cleaved, the increase in fluorescence is proportional to the amount of proteinase present and to the time of incubation. Thus, the fluorescence assay provides a quantitative method for assessing proteinase activity that is more sensitive convenient and rapid than the gel electrophoresis assay.
(§2) After determining the identity of the two cofactors, reconstitution of adenovirus proteinase activity in vitro with purified components was accomplished. […] In (a), Assays in 1 ml contained 1.2 nM rEP protein, 11.9 pM Ad2 DNA and the indicated concentrations of pVI-c peptide. The rate of substrate hydrolysis is the rate in the reaction minus the rate with the rEP protein and Ad2 DNA alone which was 0.068 pmol min^-1. In (b), Assays in 1 ml contained 1.2 nM rEP protein, 36 nM pVI-c peptide and the indicated concentrations of Ad2 DNA. The rate of substrate hydrolysis is the rate in the reaction minus the rate with the rEP protein and pVI-c alone which was 2.76 pmol min^-1. The concentration of (Leu-Arg-Gly-Gly-NH)2 -rhodamine was 5 μM, and its rate of hydrolysis to Leu-Arg-Gly-Gly-NH-rhodamine was determined by measuring the increase in fluorescence every 3 minutes for 15 minutes. The pVI-c peptide was assembled in a peptide synthesizer.
(§3) Assays were performed in 400 μl of Assay Buffer (50 mM Tris-HCl, pH 7.4, 25 mM NaCl, 10 mM octylglucoside, and 1 mM dithiothreitol). The concentration of the fluorogenic substrate, (Leu-Arg-Gly-Gly-NH)2 -rhodamine was 5 μM. When present, the number of disrupted virus particles was 10^10 and the amount of recombinant proteinase was 0.12 mAU280 nm. […] After 30 minutes at 37° C., a 360 μl aliquot of the reaction was added to 340 μl of Assay Buffer minus octylglucoside, and the increase in fluorescence was measured. The excitation wavelength was 492 nm and the emission wavelength was 523 nm, both with a bandwidth of 5 nm. The change in fluorescence, ΔF, is the magnitude of the fluorescence from the sample minus the magnitude of the fluorescence from an identical solution without enzyme.
(§4) DNase-treated disrupted virus was obtained by incubating 2×10^10 disrupted virions in 20 μl containing 0.1M NaAc, pH 5.0, 5 mM MgCl2, and 55 μg/ml DNase I for 4 minutes at 25° C. Then, EDTA to 23 mM and dithiothreitol to 2.3 mM were added, and the reactions were heated at 56° C. for 1 minute to inactivate the DNase.
(§5) For the assays shown in FIG. 8, the DNase reactions were diluted by the addition of 380 μl Assay Buffer containing the substrate, the proteinase and either 2×10^10 molecules of Ad2 DNA (+) or no DNA (-). After 30 minutes at 37° C., 360 μl of the reactions were added to 340 μl Assay Buffer minus octylglucoside and the increase in fluorescence was measured. The assays in (B) and (C) were identical to those in (A) except that in (B) H2ts1 virus was added after the DNase was inactivated (i-DNase) and in (C) no Dnase was present. In (D) recombinant proteinase plus 10^10 molecules of Ad2 DNA were preincubated for 10 minutes at 37° C. before adding substrate.
(§6) .dagger. All assays contained 8.3 nM rEP protein, 98 nM pVIc peptide, and
(§7) 1 μM (Leu--Arg--Gly--Gly--NH)2rhodamine. The rate of substrate

[3] = Stability/sensitivity of the peptide cofactor; assay type: physicochemical; details: boiling for 5 minutes
[4] = system: Ad2 proteinase (rEP protein); assay type: biochemical, human adenovirus type 2; details: disrupted H2ts1 virus treated with DNase prior to the assay, plus recombinant proteinase
Text: as §1, §2, §3, §4, §5, §6, §7

[5] = system: (Leu-Arg-Gly-Gly-NH)2 -rhodamine; assay: Fluorescence assay of proteinase activity of virus and recombinant proteinase preparations; assay type: biochemical; details: about 5% pure, from Sf9 cells; Ad2 DNA and H2ts1 virions to provide cofactor
Text: as §1
as §3, with “The concentration of the fluorogenic substrate, (Leu-Arg-Gly-Gly-NH)2 -rhodamine was 5 μM.” left out
Disrupted virus was obtained as follows: Twice CsCl-banded virus was dialyzed against 10 mM Tris-HCl, pH 8.0, 1mM EDTA and centrifuged at 100,000×g for 1 hour. The pellet was suspended in 10 mM Tris-HCl, pH 6.8, containing 20% (v/v) glycerol and, after three 10 second bursts of sonication, was stored at -20° C. The fluorogenic substrate was synthesized and purified at BNL by Dr. Walter Mangel, using methods similar to those previously described by Dr. Mangel. These methods are described in two U.S. Patents (U.S. Pat. No. 4,557,862 entitled "Rhodamine derivatives as fluorogenic substrates for proteinases" by Mangel, W. F., Leytus, S., and L. Helhado; issued Dec. 10, 1985; U.S. patent application Ser. No. 780,552; "Novel rhodamine derivatives as fluorogenic substrates" by Mangel, W. F., Leytus, S., and L. Helhado; filing date Sep. 24, 1985) and in other publications by Mangel and co-workers.

[6] = system: Ad2 major core protein precursor, pVII; assay: Assay of adenovirus proteinase activity in crude extracts: cleavage of [35S]-methionine-labeled pVII (SDS-PAGE, autoradiography); assay type: biochemical, adenovirus type 2; details: purified from baculovirus-infected Sf9 insect cells

T2 sequence (P03252 whole entry): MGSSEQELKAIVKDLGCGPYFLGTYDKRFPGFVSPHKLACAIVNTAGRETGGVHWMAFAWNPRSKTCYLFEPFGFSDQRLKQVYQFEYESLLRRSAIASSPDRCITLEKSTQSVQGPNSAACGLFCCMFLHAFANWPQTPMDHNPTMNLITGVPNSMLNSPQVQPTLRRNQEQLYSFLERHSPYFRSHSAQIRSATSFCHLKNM
T1 sequence (P03252 whole entry): as above

GVQSLHRRRCF [pVI-c peptide]
Cleavage of the HEP1DBP substrate [1]: Rapid and complete cleavage | Rate of substrate hydrolysis with the rEP protein and pVI-c alone [2]: 2.76 pmol min^-1 | Heat stability of cofactor activity [3]: did not irreversibly denature

DNase
Proteinase activity lost relative to untreated H2ts1 virus [4]: 94%

vNPVAd2EP: recombinant Ad2 proteinase expressed in Sf9 insect cells from baculovirus vector vNPVAd2EP
Specific activity [5]: equivalent to that of bacterially-produced proteinase | Activity in the crude extract assay [6]: active
